Experiments:
Arc1p dN [1] = molecular target: T1, Arc1p dN (Saccharomyces cerevisiae, UniProt P46672 132-376, del1-131); assay: competition FP; FP: 25 mM Tris-HCl pH 7.5, 2 mM MgCl2, 50 mM NaCl (Trbp111) or 150 mM NaCl (Arc1p), room temperature; ITC: 25 mM Tris-HCl pH 7.4, 150 mM NaCl, 2 mM MgCl2, 25 C; details: protein: recombinant; tags: His-MBP removed; hairpin
T1 sequence: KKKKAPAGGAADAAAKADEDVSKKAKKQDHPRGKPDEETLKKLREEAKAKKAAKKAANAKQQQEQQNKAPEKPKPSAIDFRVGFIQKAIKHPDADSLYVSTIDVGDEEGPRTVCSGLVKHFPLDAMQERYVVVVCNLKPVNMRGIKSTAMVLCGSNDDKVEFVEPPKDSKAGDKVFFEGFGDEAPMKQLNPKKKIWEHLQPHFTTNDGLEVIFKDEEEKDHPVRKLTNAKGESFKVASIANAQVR

Trbp111 [2] = molecular target: T2, Trbp111 (Aquifex aeolicus, UniProt O66738 1-111); assay: competition FP; vs fluorescein-tRNATyr; FP: 25 mM Tris-HCl pH 7.5, 2 mM MgCl2, 50 mM NaCl (Trbp111) or 150 mM NaCl (Arc1p), room temperature; ITC: 25 mM Tris-HCl pH 7.4, 150 mM NaCl, 2 mM MgCl2, 25 C; details: protein: recombinant; tags: His-MBP removed (PreScission); chain copies: 2; hairpin
T2 sequence (O66738 entry or part of it): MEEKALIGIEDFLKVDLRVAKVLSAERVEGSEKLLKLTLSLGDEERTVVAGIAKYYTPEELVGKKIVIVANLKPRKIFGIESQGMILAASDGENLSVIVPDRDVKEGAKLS

Trbp111 [3] = molecular target: T2, Trbp111; assay: competition fluorescence polarization; ITC (Arc1p): 25 mM Tris-HCl pH 7.4, 150 mM NaCl, 2 mM MgCl2, 25 °C. FP and competition FP: 25 mM Tris-HCl pH 7.5, 150 mM NaCl (Arc1p) or 50 mM NaCl (Trbp111), 2 mM MgCl2, room temperature; details: protein: recombinant; tags: His-MBP removed (PreScission); chain copies: 2; hairpin
Arc1p dN [4] = molecular target: T1, Arc1p dN; assay: as above; details: protein: recombinant; tags: His-MBP removed; hairpin
Trbp111 [5] = molecular target: T2, Trbp111; assay: competition FP; FP: 25 mM Tris-HCl pH 7.5, 2 mM MgCl2, 50 mM NaCl (Trbp111) or 150 mM NaCl (Arc1p), room temperature; ITC: 25 mM Tris-HCl pH 7.4, 150 mM NaCl, 2 mM MgCl2, 25 C; details: protein: recombinant; tags: His-MBP removed (PreScission); chain copies: 2; hairpin
Arc1p dN [6] = molecular target: T1, Arc1p dN; assay: as above; details: protein: recombinant; tags: His-MBP removed; hairpin; remark: listed apart in the source
Arc1p dN [7] = molecular target: T1, Arc1p dN; assay: 2AP fluorescence lifetime; 20 uM protein: 4.76 to 6.2 ns; FP: 25 mM Tris-HCl pH 7.5, 2 mM MgCl2, 50 mM NaCl (Trbp111) or 150 mM NaCl (Arc1p), room temperature; ITC: 25 mM Tris-HCl pH 7.4, 150 mM NaCl, 2 mM MgCl2, 25 C; details: protein: recombinant; tags: His-MBP removed; label: 2AP; hairpin
Trbp111 [8] = molecular target: T2, Trbp111; assay: 2AP fluorescence lifetime; 60 uM protein: 4.73 to 5.76 ns; FP: 25 mM Tris-HCl pH 7.5, 2 mM MgCl2, 50 mM NaCl (Trbp111) or 150 mM NaCl (Arc1p), room temperature; ITC: 25 mM Tris-HCl pH 7.4, 150 mM NaCl, 2 mM MgCl2, 25 C; details: protein: recombinant; tags: His-MBP removed (PreScission); chain copies: 2; label: 2AP; hairpin
Arc1p dN [9] = molecular target: T1, Arc1p dN; assay: 2AP fluorescence lifetime; 20 uM protein: 5.46 to 6.26 ns; FP: 25 mM Tris-HCl pH 7.5, 2 mM MgCl2, 50 mM NaCl (Trbp111) or 150 mM NaCl (Arc1p), room temperature; ITC: 25 mM Tris-HCl pH 7.4, 150 mM NaCl, 2 mM MgCl2, 25 C; details: protein: recombinant; tags: His-MBP removed; label: 2AP; hairpin

Q: With AGGCUUUUCAAGUAGGCCUACCA (structured_RNA) [MicroH] as the binder, how does the binding signal (Arc1p dN [1]) read?
A: ~10 fold weaker than tRNA

Q: What about the IC50 (Trbp111 [2]) of the same binder?
A: 7.2 ± 1 µM

Q: What about the IC50 (Trbp111 [3]) of the same binder?
A: 7.32 ± 0.991 µM

Q: And the IC50 (Arc1p dN [4])?
A: 4.66 ± 0.769 µM

Q: What does the source list for AGGCUUGGGUGGUUCAAGUCCACUCAGGCCUCA (structured_RNA) [MiniH dA73/dC74]?
A: binding signal (Trbp111 [5]): ~3 fold higher affinity than MiniH; IC50 (Trbp111 [3]): 2.17 ± 0.151 µM; IC50 (Arc1p dN [4]): 2.78 ± 0.339 µM

Q: How did the binding signal (Arc1p dN [1]) turn out when AGGCUUGGGUGGUUCAAGUCCACUCAGGCCUACCA (structured_RNA) [MiniH] was run?
A: ~10 fold weaker than tRNA

Q: What about the IC50 (Trbp111 [2]) of the same binder?
A: 6.5 ± 1 µM

Q: And the IC50 (Trbp111 [3])?
A: 5.96 ± 1.02 µM

Q: What about the IC50 (Arc1p dN [4]) of the same binder?
A: 3.69 ± 0.931 µM

Q: Which binding signal (Arc1p dN [6]) does the source give for AGGCUUGGGUGGUUCAAGUCCACUCAGGCCUACCU (structured_RNA) [MiniH-ACCU] here?
A: ~3 fold weaker than MiniH

Q: And the IC50 (Arc1p dN [4])?
A: 11.8 ± 2.67 µM

Q: Does AGGCUUGGGUGGUUCAAGUCCACUCAGGCCUACAA (structured_RNA, 2-aminopurine at position 75) [MiniH-AC-2AP-A] bind (Arc1p dN [7])?
A: binds

Q: Does AGGCUUGGGUGGUUCAAGUCCACUCAGGCCUACAA (structured_RNA, 2-aminopurine at position 75) [MiniH-AC-2AP-A] bind (Trbp111 [8])?
A: binds

Q: Which results are given for AGGCUUGGGUGGUUCAAGUCCACUCAGGCCUACCG (structured_RNA) [MiniH-ACCG]?
A: binding signal (Arc1p dN [6]): ~2 fold weaker than MiniH; IC50 (Arc1p dN [4]): 7.58 ± 2.9 µM

Q: Does AGGCUUGGGUGGUUCAAGUCCACUCAGGCCUACCA (structured_RNA, 2-aminopurine at position 76) [MiniH-ACC-2AP] bind (Arc1p dN [9])?
A: binds

Q: For AGGCUUGGGUGGUUCAAGUCCACUCAGGCCUACCC (structured_RNA) [MiniH-ACCC], which binding signal (Arc1p dN [6]) is on record?
A: ~3 fold weaker than MiniH

Q: And the IC50 (Arc1p dN [4])?
A: 13.2 ± 4.95 µM
